This is an account of results in US20240018502A1.

The chains are these.
B1: MTSP-1 Q38H/I41S/D60bT/F60eT/F97D/ins97aV/T98P/F99L/C122S/G151N/Q175L/Q192V (enzyme)
chain: VVGGTDADEGEWPWQVSLHALGHGHSCGASLISPNWLVSAAHCYIDTRGTRYSDPTQWTAFLGLHDQSQRSAPGVQERRLKRIISHPFFNDDVPLDYDIALLELEKPAEYSSMVRPISLPDASHVFPAGKAIWVTGWGHTQYGGTNALILQKGEIRVINQTTCENLLPQLITPRMMCVGFLSGGVDSCVGDSGGPLSSVEADGRIFQAGVVSWGDGCAQRNKPGVYTRLPLFRDWIKENTGV
B2: MTSP-1 Q38D/I41S/D60bT/F60eR/ins97aV/F97D/T98P/F99L/C122S/G151K/Q175S/Q192V (enzyme)
chain: VVGGTDADEGEWPWQVSLHALGDGHSCGASLISPNWLVSAAHCYIDTRGRRYSDPTQWTAFLGLHDQSQRSAPGVQERRLKRIISHPFFNDDVPLDYDIALLELEKPAEYSSMVRPISLPDASHVFPAGKAIWVTGWGHTQYGGTKALILQKGEIRVINQTTCENLLPQSITPRMMCVGFLSGGVDSCVGDSGGPLSSVEADGRIFQAGVVSWGDGCAQRNKPGVYTRLPLFRDWIKENTGV
B3: MTSP-1 Q38H/I41S/D60bT/F60eS/Y60gW/ins97aV/F97D/T98P/F99L/C122S/G151H/Q175L/Q192D (enzyme)
chain: VVGGTDADEGEWPWQVSLHALGHGHSCGASLISPNWLVSAAHCYIDTRGSRWSDPTQWTAFLGLHDQSQRSAPGVQERRLKRIISHPFFNDDVPLDYDIALLELEKPAEYSSMVRPISLPDASHVFPAGKAIWVTGWGHTQYGGTHALILQKGEIRVINQTTCENLLPQLITPRMMCVGFLSGGVDSCDGDSGGPLSSVEADGRIFQAGVVSWGDGCAQRNKPGVYTRLPLFRDWIKENTGV
B4: MTSP-1 Q38L/I41T/D60bA/F60eL/ins97aV/F97D/T98P/F99L/C122S/G151H/Q175M/Q192T (enzyme)
chain: VVGGTDADEGEWPWQVSLHALGLGHTCGASLISPNWLVSAAHCYIDARGLRYSDPTQWTAFLGLHDQSQRSAPGVQERRLKRIISHPFFNDDVPLDYDIALLELEKPAEYSSMVRPISLPDASHVFPAGKAIWVTGWGHTQYGGTHALILQKGEIRVINQTTCENLLPQMITPRMMCVGFLSGGVDSCTGDSGGPLSSVEADGRIFQAGVVSWGDGCAQRNKPGVYTRLPLFRDWIKENTGV
B5: MTSP-1 Q38Y/I41A/D60bL/F60eQ/ins97aV/F97D/T98P/F99L/C122S/G151N/Q175M/Q192A (enzyme)
chain: VVGGTDADEGEWPWQVSLHALGYGHACGASLISPNWLVSAAHCYIDLRGQRYSDPTQWTAFLGLHDQSQRSAPGVQERRLKRIISHPFFNDDVPLDYDIALLELEKPAEYSSMVRPISLPDASHVFPAGKAIWVTGWGHTQYGGTNALILQKGEIRVINQTTCENLLPQMITPRMMCVGFLSGGVDSCAGDSGGPLSSVEADGRIFQAGVVSWGDGCAQRNKPGVYTRLPLFRDWIKENTGV
B6: MTSP-1 Q38W/I41S/D60bG/F60eI/F97D/ins97aV/T98P/F99L/C122S/G151N/Q175A/Q192D (enzyme)
chain: VVGGTDADEGEWPWQVSLHALGWGHSCGASLISPNWLVSAAHCYIDGRGIRYSDPTQWTAFLGLHDQSQRSAPGVQERRLKRIISHPFFNDDVPLDYDIALLELEKPAEYSSMVRPISLPDASHVFPAGKAIWVTGWGHTQYGGTNALILQKGEIRVINQTTCENLLPQAITPRMMCVGFLSGGVDSCDGDSGGPLSSVEADGRIFQAGVVSWGDGCAQRNKPGVYTRLPLFRDWIKENTGV
B7: MTSP-1 Q38T/I41S/D60bG/F60eM/ins97aV/F97D/T98P/F99L/C122S/G151N/Q175S/Q192S (enzyme)
chain: VVGGTDADEGEWPWQVSLHALGTGHSCGASLISPNWLVSAAHCYIDGRGMRYSDPTQWTAFLGLHDQSQRSAPGVQERRLKRIISHPFFNDDVPLDYDIALLELEKPAEYSSMVRPISLPDASHVFPAGKAIWVTGWGHTQYGGTNALILQKGEIRVINQTTCENLLPQSITPRMMCVGFLSGGVDSCSGDSGGPLSSVEADGRIFQAGVVSWGDGCAQRNKPGVYTRLPLFRDWIKENTGV
B8: MTSP-1 Q38H/I41S/D60bF/F60eV/F97D/ins97aV/T98P/F99L/C122S/G151N/Q175L/Q192A (enzyme)
chain: VVGGTDADEGEWPWQVSLHALGHGHSCGASLISPNWLVSAAHCYIDFRGVRYSDPTQWTAFLGLHDQSQRSAPGVQERRLKRIISHPFFNDDVPLDYDIALLELEKPAEYSSMVRPISLPDASHVFPAGKAIWVTGWGHTQYGGTNALILQKGEIRVINQTTCENLLPQLITPRMMCVGFLSGGVDSCAGDSGGPLSSVEADGRIFQAGVVSWGDGCAQRNKPGVYTRLPLFRDWIKENTGV
B9: MTSP-1 Q38R/I41S/D60bY/F60eD/ins97aV/F97D/T98P/F99L/C122S/G151N/Q175M/Q192A (enzyme)
chain: VVGGTDADEGEWPWQVSLHALGRGHSCGASLISPNWLVSAAHCYIDYRGDRYSDPTQWTAFLGLHDQSQRSAPGVQERRLKRIISHPFFNDDVPLDYDIALLELEKPAEYSSMVRPISLPDASHVFPAGKAIWVTGWGHTQYGGTNALILQKGEIRVINQTTCENLLPQMITPRMMCVGFLSGGVDSCAGDSGGPLSSVEADGRIFQAGVVSWGDGCAQRNKPGVYTRLPLFRDWIKENTGV
B10: MTSP-1 I41T/D60bW/F60eH/F97D/ins97aV/T98P/F99L/C122S/G151N/Q175L/Q192G (enzyme)
chain: VVGGTDADEGEWPWQVSLHALGQGHTCGASLISPNWLVSAAHCYIDWRGHRYSDPTQWTAFLGLHDQSQRSAPGVQERRLKRIISHPFFNDDVPLDYDIALLELEKPAEYSSMVRPISLPDASHVFPAGKAIWVTGWGHTQYGGTNALILQKGEIRVINQTTCENLLPQLITPRMMCVGFLSGGVDSCGGDSGGPLSSVEADGRIFQAGVVSWGDGCAQRNKPGVYTRLPLFRDWIKENTGV
B11: MTSP-1 Q38E/I41S/D60bV/F60eK/Y60gW/F97T/ins97aE/T98G/F99L/C122S/G151N/Q175L/Q192D (enzyme)
chain: VVGGTDADEGEWPWQVSLHALGEGHSCGASLISPNWLVSAAHCYIDVRGKRWSDPTQWTAFLGLHDQSQRSAPGVQERRLKRIISHPFFNDTEGLDYDIALLELEKPAEYSSMVRPISLPDASHVFPAGKAIWVTGWGHTQYGGTNALILQKGEIRVINQTTCENLLPQLITPRMMCVGFLSGGVDSCDGDSGGPLSSVEADGRIFQAGVVSWGDGCAQRNKPGVYTRLPLFRDWIKENTGV
B12: MTSP-1 Q38H/I41A/D60bE/F60eH/Y60gW/F97T/ins97aE/T98G/F99L/C122S/G151N/Q175L/Q192D (enzyme)
chain: VVGGTDADEGEWPWQVSLHALGHGHACGASLISPNWLVSAAHCYIDERGHRWSDPTQWTAFLGLHDQSQRSAPGVQERRLKRIISHPFFNDTEGLDYDIALLELEKPAEYSSMVRPISLPDASHVFPAGKAIWVTGWGHTQYGGTNALILQKGEIRVINQTTCENLLPQLITPRMMCVGFLSGGVDSCDGDSGGPLSSVEADGRIFQAGVVSWGDGCAQRNKPGVYTRLPLFRDWIKENTGV
B13: MTSP-1 Q38L/I41A/D60bH/F60eT/ins97aV/F97D/T98P/F99L/C122S/G151Q/Q175A/Q192G (enzyme)
chain: VVGGTDADEGEWPWQVSLHALGLGHACGASLISPNWLVSAAHCYIDHRGTRYSDPTQWTAFLGLHDQSQRSAPGVQERRLKRIISHPFFNDDVPLDYDIALLELEKPAEYSSMVRPISLPDASHVFPAGKAIWVTGWGHTQYGGTQALILQKGEIRVINQTTCENLLPQAITPRMMCVGFLSGGVDSCGGDSGGPLSSVEADGRIFQAGVVSWGDGCAQRNKPGVYTRLPLFRDWIKENTGV
B14: MTSP-1 Q38H/I41A/D60bV/F60eI/Y60gW/F97T/ins97aE/T98G/F99L/C122S/G151N/Q175L/Q192D (enzyme)
chain: VVGGTDADEGEWPWQVSLHALGHGHACGASLISPNWLVSAAHCYIDVRGIRWSDPTQWTAFLGLHDQSQRSAPGVQERRLKRIISHPFFNDTEGLDYDIALLELEKPAEYSSMVRPISLPDASHVFPAGKAIWVTGWGHTQYGGTNALILQKGEIRVINQTTCENLLPQLITPRMMCVGFLSGGVDSCDGDSGGPLSSVEADGRIFQAGVVSWGDGCAQRNKPGVYTRLPLFRDWIKENTGV

In this assay the target is plasma purified human complement protein C3 (human) (UniProt P01024). Nature of the assay: cell-based or functional assay.
Sequence of plasma purified human complement protein C3 (human) (P01024 23-667, chain 1 of 2): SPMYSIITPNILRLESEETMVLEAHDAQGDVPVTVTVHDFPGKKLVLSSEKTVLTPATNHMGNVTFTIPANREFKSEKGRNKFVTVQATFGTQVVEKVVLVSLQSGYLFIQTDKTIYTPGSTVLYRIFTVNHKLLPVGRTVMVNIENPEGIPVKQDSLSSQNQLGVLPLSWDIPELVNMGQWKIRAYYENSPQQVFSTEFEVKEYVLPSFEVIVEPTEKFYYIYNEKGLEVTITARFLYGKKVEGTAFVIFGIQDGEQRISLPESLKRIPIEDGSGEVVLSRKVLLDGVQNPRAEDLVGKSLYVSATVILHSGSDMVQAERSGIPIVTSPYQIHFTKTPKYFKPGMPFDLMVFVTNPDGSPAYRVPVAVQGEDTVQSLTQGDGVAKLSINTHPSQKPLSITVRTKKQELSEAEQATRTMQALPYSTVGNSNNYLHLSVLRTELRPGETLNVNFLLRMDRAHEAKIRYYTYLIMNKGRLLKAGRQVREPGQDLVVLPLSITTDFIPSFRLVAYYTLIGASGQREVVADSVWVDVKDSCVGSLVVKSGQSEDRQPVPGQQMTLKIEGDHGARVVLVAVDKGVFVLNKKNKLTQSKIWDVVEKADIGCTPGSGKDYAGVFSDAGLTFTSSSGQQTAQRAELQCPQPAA
Sequence of plasma purified human complement protein C3 (human) (P01024 672-1663, chain 2 of 2): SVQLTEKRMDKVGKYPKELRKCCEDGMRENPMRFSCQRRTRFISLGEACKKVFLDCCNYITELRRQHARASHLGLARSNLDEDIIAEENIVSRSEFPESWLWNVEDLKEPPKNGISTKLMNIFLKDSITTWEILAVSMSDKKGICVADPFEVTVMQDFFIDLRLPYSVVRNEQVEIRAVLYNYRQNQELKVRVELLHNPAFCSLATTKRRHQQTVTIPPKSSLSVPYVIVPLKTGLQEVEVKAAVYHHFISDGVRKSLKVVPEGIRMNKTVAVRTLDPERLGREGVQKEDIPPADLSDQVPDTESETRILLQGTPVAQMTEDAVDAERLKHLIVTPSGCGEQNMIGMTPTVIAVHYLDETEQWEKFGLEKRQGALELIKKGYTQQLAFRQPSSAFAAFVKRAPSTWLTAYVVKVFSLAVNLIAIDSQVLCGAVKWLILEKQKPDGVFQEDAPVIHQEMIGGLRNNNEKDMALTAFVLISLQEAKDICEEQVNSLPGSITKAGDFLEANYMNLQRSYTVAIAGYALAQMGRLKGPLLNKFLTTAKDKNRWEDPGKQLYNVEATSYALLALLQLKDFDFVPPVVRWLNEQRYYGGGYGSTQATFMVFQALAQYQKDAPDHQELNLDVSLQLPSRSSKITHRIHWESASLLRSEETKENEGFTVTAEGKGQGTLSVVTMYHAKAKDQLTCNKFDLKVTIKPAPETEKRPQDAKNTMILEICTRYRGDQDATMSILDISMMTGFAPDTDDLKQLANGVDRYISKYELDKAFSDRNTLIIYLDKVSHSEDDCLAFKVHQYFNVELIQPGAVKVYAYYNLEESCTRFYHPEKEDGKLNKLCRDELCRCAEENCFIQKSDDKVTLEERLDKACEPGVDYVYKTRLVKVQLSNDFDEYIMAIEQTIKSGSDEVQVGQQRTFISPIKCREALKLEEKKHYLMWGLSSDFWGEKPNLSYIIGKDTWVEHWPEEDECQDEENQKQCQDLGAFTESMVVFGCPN
In turn, B1 returned an EC50 of hC3 cleavage of 5.08 nM.

On to B2, for which the EC50 of hC3 cleavage is 48.1 nM.

In turn, B3 registered an EC50 of hC3 cleavage of 12.6 nM.

On to B4, for which the EC50 of hC3 cleavage stood at 20.2 nM.

B5 showed an EC50 of hC3 cleavage of 1.53 nM.

On to B6, for which the EC50 of hC3 cleavage came to 43.1 nM.

Molecule B7 returned an EC50 of hC3 cleavage of 28.8 nM.

Turning to B8, the EC50 of hC3 cleavage amounted to 1.57 nM.

Molecule B9 registered an EC50 of hC3 cleavage of 3.22 nM.

With B10, the EC50 of hC3 cleavage came out at 3.1 nM.

For B11, the EC50 of hC3 cleavage came to 12.1 nM.

For the molecule B12, the EC50 of hC3 cleavage was 8.28 nM.

Molecule B13 had an EC50 of hC3 cleavage of 5.73 nM.

Take B14: the EC50 of hC3 cleavage stood at 2.91 nM.
